Drawing on US20150132331A1, this text covers fold better recognition than commercial full-length HA for one substance.

The test addresses HA stem domain construct mutant M6 (A/California/05/2009 (H1N1) HA stem fused to foldon, refolded trimer) (Influenza A virus A/California/05/2009 (H1N1)).

In the case of “antibody C179 (Mouse IgG) (TAKAR Bio INC.)”, the fold better recognition than commercial full-length HA was 30 fold.
